Assay results: a protein production outcome set (Wang et al. 2014)

test: label from the status in PepcDB records

Protein production, failed:
MDLDPTLLTWAFVVGGALLMLIEAVVPGGIAFFLGIGGVVVGGLRALGLLVDPLSSVVTWVFLSTGLTIALRPLMLRFVQGDVSLAMTDEDAEAMGETVTVVEAVGPESPGRIRFRGATWDARTLEGRLPDGAEAQLLYRDNLTWVVEPADHADLDAELSAAIGSDVSEGDANRSPSTDDTTSDDSGLGYDPSARSSS
MDLENNNNTPLTGKQAEKCAKKRKCVITLDEKQVESKRLKKEESNVEATSRPPAQSPKKRLHLNGKPMQNKDLNFKYGNYKHYYGKRILNKDFHDIRLDVLGTQPDLFRNKQLLDIGCNSGHLSIQIARKFEVKSLVGLDIDRGLINDAQKTVSHLKRHATPGQGIPHIQFVHGNYVLEDDVLLEIERPQFDVILCLSVTKWIHLNFCDSGLKQAFRRMYLQLRPGGKLILEPQSFDGYKRRKKLSEQIRDNYNAIKFRPDHFTEYLLSPEVGFAEMKLMGIPEHCKVGFKRPIQIFTKS
MDLFVMVVGASGIGDGGEQKYNYKLRAWTNEDDPRQTKIVTTNADPEFREVLHLPQNMASSFLNLELFSVNSADTDAFFIGRANTALPMKTNANVYRKIKLQNLDTSGNIVTVGYLEVYLGLETG
MDLKILSLATDKTTDKLQEFLQTLKDDDLASLLQNQAVKGRAVGTLLRAVLKGSPCSEEDGALRRYKIYSCCIQLVESGDLQQDVASEIIGLLMLEVHHFPGPLLVDLASDFVGAVREDRLVNGKSLELLPIILTALATKKEVLACGKGDLNGEEYKRQLIDTLCSVRWPQRYMIQLTSVFKDVCLTPEEMNLVVAKVLTMFSKLNLQEIPPLVYQLLVLSSKGSRRSVLDGIIAFFRELDKQHREEQSSDELSELITAPADELYHVEGTVILHIVFAIKLDCELGRELLKHLKVALRCF
MDLLEYQVKEWFGEIGIPVLPSQRIDHPTDLKRLKIRYPIVLKSQVHAGEREKVGGVRMVETTIDAIAAAQTIFNLSIWGELPEVLLAESKYNSHQEFYLAVVLDTAVCRPVLLGSTEADIDLELADQKMQYVVVEQEFSPFYARRLALKMGLQGTLMQSVSTVLEKMYQLFVQKDLDLVEINPLGVNLAGEVMALNGKVGVNERAIGRHPEIAAMAAKIIPRHYDKSFSNGRDWNNLEKQRRIGILGNGTGSILATYDLVASGGGKPGICLNLRHAAITDLSPTKFGDRLTKGLNTLAADKNTQVILINLLGSIPQPEEAAQAIAQFIQQNKGEYPPSIAKSNGKNLSQHQSPQLVIRLAGSELNAAKEVLAALQTHEEGLILVEDLDEAVATAVRLTKSHAYKKVS
MDLLLKGGWVVTQERVEQADIAVEGEKIAAIGPDLEARAAAVRDVTGKYILPGAIDAHVHYQMPIGELLTADDWFTGTRLAACGGVTTVIDYAEPAGPAEPLTEALAKRLEEAREQACVDYGLHQVVLPGQEEDTGELAKVIEQGVTSFKVFTTYKQCLGYAAIGRLLKQARRLGALVTVHCEDHDLVTARRRELEATGQTDPAYHANSRPAAAEVKAIEKVIRQAAAAGAPVYIVHVSTGGGAELIAAARARGQQVFGETCPHYLLLTEERYAGPDSRLFLMCPPLRTVKDNRILWQHLASGDLQVVATDHCSYSPEQKAAGTAFYNTPSGVPGTETLLPLLYSYGVRQGRLTLPQMVRVLATNPARLFGLYPRKGCLAPGSDADLVVFDPSQEVILKASDLHSAAAYTIFEGFALQGYVEATYLRGRLIYDLGRFLGRAGQGEFIPGKITVL
MDLLRGSDYVGDGAWFRAEALQEIGAFAEAPDADSYDALLRIHDRYGAMVIGHIPDMLLHAPSRGTADGSGQRAALDAHLARNGGGADIEAGPAAGTRRIRYPAPEQARLSIIVADAGDGFHLSPCIDALQASLGGCACEILAIAADGEPGDAAKLLRCDPGLGLAARFQLGAEAASGDFLLFIDSRVELAQPDGLQALLGLAARPEVGAAAPRLLRPDGEALWRGPLLIGAGEGAAALFCDAGASEAGHLNRQAVEHNPGALRLECLLMAKAFYQQIGGMDASLPTLLDTAVDLGLRIRAAGRLPVWTPFVSARRHGALDVSEPPETCDADALSLRWNGWLGQDPAHNRHLSLAADKAFQIEDVYSAQWDASFHERTRVLALPAESKATEARMASPFRILQEDCQCQLTQIPAGQRLPSAGEIERMAPDALLMSARFDSASLAWLRGYRQRRPDVLAVLMLDKLDFGAGTTHRYGHSLLQAMAGMADRVIVPTESLYRMALAFADDVRLVPDGLEEARWFELQSLRRVGKKPRVGWVGSAAEAPDLLMLSGIILATAAELDWIVLGDCPEVLKPCLAEYHAFDLSSDDYPTRLASLSLDMAVMPKAATLANETGSPLRMFEFGALGVPVICSAVGELGLSPAPVARVENDVSSWGEALRELARDAAAAAQAGDGLRAWVRENCGLKRHLPLWQQAISR
